In paper PMC7693302:

Biological target: S2 domain of SARS-CoV-2 S protein (from S protein with FLAG at both N- and C-termini) (SARS-CoV-2)
Experiment: co-sedimentation

S1 domain of S^G614 (from S protein with FLAG at both N- and C-termini) (domain or fragment)
fold S1:S2 ratio against PV^D614: 3.5 fold
